Test results published in the supplement of paper PMC9170038.

Tested on: MS2 coat protein
Assay: apparent KD of MS2 coat protein; designed switch direction (-1 OFF switch, 1 ON switch): -1; higher = weaker reporter binding
In short: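 An oligonucleotide input, 200 uM small-molecule ligand, or no input was present during titration of SNAP-549-labelled MS2 coat protein, which was doubled from 0.7 or 1.5 nM to 3 µM. Designed RNA switches had been transcribed on Illumina chips by stalled E. coli RNA polymerase. Apparent KD per design is the median over clusters of curves fitted to normalised cluster fluorescence.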

[1] = input ligand: microRNA oligo, concentration not stated
[2] = Eterna round: R95, input ligand: microRNA oligo, concentration not stated
[3] = Eterna round: R95, input ligand: FMN 200 uM
[4] = Eterna round: R95, input ligand: none

CCUCUACAUGAGGAUCACCCAUGUGAGGAUAUCCUGCGAGGAUCAAAAGAUCCUCGUGGGAGAAGGCAUAUGAU [Omei Ex1 A3] (Eterna round: R97, puzzle: Exclusion 1)
apparent KD of MS2 coat protein (input ligand: FMN 200 uM): 0.0365 µM | apparent KD of MS2 coat protein (input ligand: none): 0.0266 µM

CCUCUACAUGAGGAUCACCCAUGUGAGGAUAUGCGAGGCGCACUCGAUGAGCGCGCCGGUAGAAGGCAUGUGGU [Raraveries] (Eterna round: R96, puzzle: Exclusion 1)
apparent KD of MS2 coat protein (input ligand: FMN 200 uM): 0.067 µM | apparent KD of MS2 coat protein [1]: 0.0298 µM | apparent KD of MS2 coat protein (input ligand: none): 0.0419 µM

CCUCUACAUGAGGAUCACCCAUGUGAGGAUAUGUUGACGAGCCUGAAAAGGCUGGUCAACAGAAGGCAUAUGUA [Exclusion 1 (Mod 2 solution 16 by Eternabot)] (Eterna round: R97, puzzle: Exclusion 1)
apparent KD of MS2 coat protein (input ligand: FMN 200 uM): 0.0403 µM | apparent KD of MS2 coat protein (input ligand: none): 0.0189 µM

CCUGUACAUGAGGAUCACCCAUGUUAGGAUAUCUCGCCGUCGGCUUGCCGACGGUAUUAGAGAAGGGACAAGGG [JL Tixe mod 4] (puzzle: Exclusion 1)
apparent KD of MS2 coat protein [2]: 0.031 µM

CCUGUGUAAGGAUAUGCCUGGCCGUGAGGCCAGAUUGAAUAGCAGAAGGUACAUGAGGAUCACCCAUGUACGGG [jl-ex4-4.61 ViennaUCT mod] (Eterna round: R97, puzzle: Exclusion 4)
apparent KD of MS2 coat protein (input ligand: FMN 200 uM): 0.206 µM | apparent KD of MS2 coat protein (input ligand: none): 0.0329 µM

CCUUAACAUGAGGAUCACCCAUGUGAGGAUAUGAUGCAGCAGUGGUCUACGCUGUGCAUCAGAAGGUACAUGGU (Eterna round: R96, puzzle: Exclusion 1)
apparent KD of MS2 coat protein (input ligand: FMN 200 uM): 0.291 µM | apparent KD of MS2 coat protein [1]: 0.0359 µM | apparent KD of MS2 coat protein (input ligand: none): 0.0445 µM

CCUUAACAUGAGGAUCACCCAUGUGAGGAUAUGAUGCAGCAGUGGUCUACGCUGUGCAUCAGAAGGUACAUGGU (puzzle: Exclusion 1)
apparent KD of MS2 coat protein [2]: 0.0389 µM

CGAAAUGCCCGUGGCCACAAGCUUUUUGCUUGUCUUACUACAUGAGGAUCACCCAUGUACCAUGGGCUCCUGACCAU [Rixele] (puzzle: Sensor v3, turn-off variant 2)
apparent KD of MS2 coat protein [3]: 0.0136 µM | apparent KD of MS2 coat protein [2]: 0.0116 µM | apparent KD of MS2 coat protein [4]: 0.0112 µM

CGACGUGGAGUGAGGAUAUCGUGUUCGAAAGAACGUGAGAAGGCACAUGAGGAUCACCCAUGUGAUUCACGUCG [Omei Ex4B A5] (Eterna round: R97, puzzle: Brourd's mod of Exclusion 4)
apparent KD of MS2 coat protein (input ligand: FMN 200 uM): 0.0277 µM | apparent KD of MS2 coat protein (input ligand: none): 0.0206 µM

CGAUAAAAGACAGGAUAUGAGGAGAGAGAGAGAUCAGAAGGGUCACAUGAGGAUCACCCAUGUGAGUUCUCGAUAAGAAAGAGG [Prohibition 52 - Jieux - Exclusion NG 1] (Eterna round: R96, puzzle: Exclusion NG 1)
apparent KD of MS2 coat protein (input ligand: FMN 200 uM): 0.0193 µM | apparent KD of MS2 coat protein [1]: 0.0146 µM | apparent KD of MS2 coat protein (input ligand: none): 0.021 µM

CGAUAGAUAGGAUAUAUAAUUGGAAUUCACCUUGGGCGGCUACAUGAGGAUCACCCAUGUAGAAGGGUCUUCGA [Eternabot (L1) Solution 80] (Eterna round: R97, puzzle: Exclusion 2)
apparent KD of MS2 coat protein (input ligand: FMN 200 uM): 0.0163 µM | apparent KD of MS2 coat protein (input ligand: none): 0.0185 µM

CGAUGACCGGUGAGGAUAUCGUGUUCGAAAGAACGUGAGAAGGCACAUGAGGAUCACCCAUGUGAUCCUCAUCG [Omei Ex4B A33] (Eterna round: R97, puzzle: Brourd's mod of Exclusion 4)
apparent KD of MS2 coat protein (input ligand: FMN 200 uM): 0.0259 µM | apparent KD of MS2 coat protein (input ligand: none): 0.0182 µM

CGAUGACGAGUGAGGAUAUCGUGUUCGAAAGAACGUGAGAAGGCACAUGAGGAUCACCCAUGUGAUCCUCAUCG [Omei Ex4B A26] (Eterna round: R97, puzzle: Brourd's mod of Exclusion 4)
apparent KD of MS2 coat protein (input ligand: FMN 200 uM): 0.708 µM | apparent KD of MS2 coat protein (input ligand: none): 0.0571 µM

CGAUGUCUUCGGACAUCGAACAUGAGGAUCACCCAUGUAUAGAGCAGAUCUUCAUGCAAGCUUUUUGCUCGUCUUAU [Sensor v3 - turn-off variant 1 - 47] (puzzle: Sensor v3, turn-off variant 1)
apparent KD of MS2 coat protein [3]: 0.0847 µM | apparent KD of MS2 coat protein [2]: 0.0146 µM | apparent KD of MS2 coat protein [4]: 0.0904 µM

CGCAACACAUGAGGAUCAAACAUGAGGAUCACCCAUGUAUAACAAGCUUUUUGCUCGUCUUAUAAAUAUGUGUUGCG [Electric Eye 2 - Jieux - Sensor, turn-off variant 1] (Eterna round: R97, puzzle: Sensor, turn-off variant 1)
apparent KD of MS2 coat protein (input ligand: FMN 200 uM): 0.0169 µM | apparent KD of MS2 coat protein (input ligand: none): 0.00913 µM

CGCACGUAAGGAUAUACAUGAGGAUCACCCAUGUGUAAAUACUGCAACGUGGUGAAUAGUAGAAGGUACGAUGC [Eternabot (L2) Solution 56] (Eterna round: R97, puzzle: Exclusion 3)
apparent KD of MS2 coat protein (input ligand: FMN 200 uM): 0.0555 µM | apparent KD of MS2 coat protein (input ligand: none): 0.0183 µM

CGCCCGGGAGGAUAUCCAAUAUAUGACAUGAGGAUCACCCAUGUUUCCACUCGUACCUCCGGAGAAGGCCCGGCGA [Ex5 #28] (Eterna round: R97, puzzle: Exclusion 5)
apparent KD of MS2 coat protein (input ligand: FMN 200 uM): 0.0202 µM | apparent KD of MS2 coat protein (input ligand: none): 0.0249 µM

CGCGUUUAUGUAGGAUAUGCCUGGCGUGCCUUAGCAGAAGGACAUGAGGAUCACCCAUGUAACAUGAGGCUCACCCAUGUCGCA (Eterna round: R96, puzzle: Exclusion NG 1)
apparent KD of MS2 coat protein (input ligand: FMN 200 uM): 0.201 µM | apparent KD of MS2 coat protein [1]: 0.12 µM | apparent KD of MS2 coat protein (input ligand: none): 0.167 µM

CGCUGGACAGGAUAUGUUCUUGGGCACUUGAGGAUCACCCAAGUCAUCGGGACAACAGGCACAGAAGGGUUUAUGG [salish99_ex5_r4_025] (Eterna round: R97, puzzle: Exclusion 5)
apparent KD of MS2 coat protein (input ligand: FMN 200 uM): 0.0316 µM | apparent KD of MS2 coat protein (input ligand: none): 0.0439 µM

CGCUGGACAGGAUAUGUUCUUGGGCACUUGAGGAUCACCCAAGUCAUCGGGACAUCAGGCACAGAAGGGUCGUUGG [salish99_ex5_r4_029] (Eterna round: R97, puzzle: Exclusion 5)
apparent KD of MS2 coat protein (input ligand: FMN 200 uM): 0.0222 µM | apparent KD of MS2 coat protein (input ligand: none): 0.0256 µM

CGCUGGUGAGGAUAUGGGUGUUUUUACAUGAGGAUCACCCAUGUGGAGUAGCAUGUGGGUCCAGAAGGCGCGAGUG [-24.2, -22.5 kcal, 21% A] (Eterna round: R97, puzzle: Exclusion 5)
apparent KD of MS2 coat protein (input ligand: FMN 200 uM): 0.398 µM | apparent KD of MS2 coat protein (input ligand: none): 0.309 µM

CGGAAAUCCAAGGAUAUGCUAGACGAAAGUCUAGCAGAAGGUGGAACAUGAGGAUCACCCAUGUGUCCAAUCCG [Mat - Exclusion 6 - Eli Mod - D25] (Eterna round: R97, puzzle: Exclusion 6)
apparent KD of MS2 coat protein (input ligand: FMN 200 uM): 0.0191 µM | apparent KD of MS2 coat protein (input ligand: none): 0.0145 µM

CGGAUGUAAGGAUAUUAGUAGUAGUCAGAAAAGACUAUUACUGAGAAGGUACAUGAGGAUCACCCAUGUUUCCG [Mat - Exclusion 4 - Eli Mod - D43] (Eterna round: R97, puzzle: Exclusion 4)
apparent KD of MS2 coat protein (input ligand: FMN 200 uM): 0.0205 µM | apparent KD of MS2 coat protein (input ligand: none): 0.0158 µM

CGGAUGUUAGGAUAUUAGUAGUAGUCAGAAAAGACUAUUACUGAGAAGGAACAUGAGGAUCACCCAUGUAUCCG [Mat - Exclusion 4 - Eli Mod - D45] (Eterna round: R97, puzzle: Exclusion 4)
apparent KD of MS2 coat protein (input ligand: FMN 200 uM): 0.0331 µM | apparent KD of MS2 coat protein (input ligand: none): 0.0151 µM

CGGCAAAGGUAGGAUAUGCUAGACGAUAGUCUAGCAGAAGGACCUACAUGAGGAUCACCCAUGUGUCCAAGCCG [Mat - Exclusion 6 - Eli Mod - D19] (Eterna round: R97, puzzle: Exclusion 6)
apparent KD of MS2 coat protein (input ligand: FMN 200 uM): 0.0279 µM | apparent KD of MS2 coat protein (input ligand: none): 0.105 µM

CGGCAACAUGUCAGGAUAUAUGUACCGCUGGGUGGAUAGAAGGGACAUGAGGAUCACCCAUGUCGUCCAGCCGG [Tisove] (puzzle: Brourd's mod of Exclusion 4)
apparent KD of MS2 coat protein [3]: 0.0194 µM | apparent KD of MS2 coat protein [2]: 0.0126 µM | apparent KD of MS2 coat protein [4]: 0.0139 µM

CGGCAAUCCAAGGAUAUGCUAGACGAAAGUCUAGCAGAAGGUGGAACAUGAGGAUCACCCAUGUGUCCAAGCCG [Eli x6 4.04] (Eterna round: R97, puzzle: Exclusion 6)
apparent KD of MS2 coat protein (input ligand: FMN 200 uM): 0.0211 µM | apparent KD of MS2 coat protein (input ligand: none): 0.0153 µM

CGGCAUGUAGAAGGAUAUCUGCACGAUUAGUGCAGAGAAGGUCUAACAUGAGGAUCACCCAUGUAGAUCAUUAACCGAUUAAUU [ENG1/8-A1] (Eterna round: R96, puzzle: Exclusion NG 1)
apparent KD of MS2 coat protein (input ligand: FMN 200 uM): 0.0219 µM | apparent KD of MS2 coat protein [1]: 0.0107 µM | apparent KD of MS2 coat protein (input ligand: none): 0.012 µM

CGGCAUGUCUGAGGAUAUCUGCACGUGUAGUGCAGAGAAGGCAGAACAUGAGGAUCACCCAUGUAGAUCAUUAACCGAUUAAUU [ENG1/7-A3] (Eterna round: R96, puzzle: Exclusion NG 1)
apparent KD of MS2 coat protein (input ligand: FMN 200 uM): 0.201 µM | apparent KD of MS2 coat protein [1]: 0.162 µM | apparent KD of MS2 coat protein (input ligand: none): 0.184 µM

CGGCGGGCAGGAUAUGGAAAUAAUAACAUGAGGAUCACCCAUGUAAAUAAAUGGGAAUAACCAGAAGGGCUUGUUG [-18.2, -17.7 kcal, A 37%] (Eterna round: R97, puzzle: Exclusion 5)
apparent KD of MS2 coat protein (input ligand: FMN 200 uM): 0.0497 µM | apparent KD of MS2 coat protein (input ligand: none): 0.0909 µM
